Results: the DeepSol protein solubility set

Test: soluble on expression in E. coli; label from the status in PepcDB or PDB records

Sequence | soluble on expression in E. coli
MTSKIALFDQTLIASLLQPLSLNQPDFKAYKTKVKLKISEQRNETSGEKELKFEISRSDDFEFLFSETLNNEKYQILARDHDLTVDFDAFPKVIIQHLLCKNIVKNLEEDGEVDARKKAGYHSIADPGKPTEINIILDAEKNFCSFELFSKTPISKGKIFSIKLHAVRGDHLISHLLKICSSQAVKLSTFYKSADELASLRQKCGDLEKQVEKLSGVKEEFEEMSEKFKELEDEVELVKEERENIRLLVEDKEDEVADLKQDTESLQKQLEENQEELEIVGNMLREEQGKVDQLQKRNVAHQKEIGKLRAELGTAQRNLEKADQLLKRNSQQQNQQSLDMRKLGELEADLKEKDSMVESLTETIGILRKELENEKLKAAENMDSFEKLSMENENLKEKIAHYRAQRFSPAPSGLPGLQTGLTNRLTPSFKPVLGPHTPYGANLNSRTPFRDNTTLNFQNSTIATPHAFRFNSQLIADETTGSSVTNTPPAQR | not soluble
MTSPVPRLIEQFERGLDAPICLTWELTYACNLACVHCLSSSGKRDPGELSTRQCKDIIDELERMQVFYVNIGGGEPTVRPDFWELVDYATAHHVGVKFSTNGVRITPEVATRLAATDYVDVQISLDGATAEVNDAIRGTGSFDMAVRALQNLAAAGFAGVKISVVITRRNVAQLDEFATLASRYGATLRITRLRPSGRGTDVWADLHPTADQQVQLYDWLVSKGERVLTGDSFFHLAPLGQSGALAGLNMCGAGRVVCLIDPVGDVYACPFAIHDHFLAGNVLSDGGFQNVWKNSSLFRELREPQSAGACGSCGHYDSCRGGCMAAKFFTGLPLDGPDPECVQGHSEPALARERHLPRPRADHSRGRRVSKPVPLTLSMRPPKRPCNESPV | not soluble
MTSRDQGINSELSNRTIQFKEKIHNGIHTEYITDQKHSNNKDREKKYRDGDKINGPQAHSLDITNERRFADNRTMFTQHIEKQRNVNTLNQNDINNSANNANVRENELTYQFQRWGQNHTVRILESSEGIRLKPSDTLVSDRLHEAQHNDVTAQRWVLTEQDERQGQRHQPHEEQENEGKFENDQKDES | soluble
MTSRRLEESMGAVQMGLVNMFKGFQSKVLPPLSPKVVTEEEVNRMLTPSEFLKEMSLTTEQRLAKTRLMCRPQIIELLDMGETTHQKFSGIDLDQALFQPFPSEIIFQNYTPCEVYEVPLILRNNDKIPRLVKVVEESSPYFKVISPKDIGHKVAPGVPSIFRILFTPEENKDYAHTLTCVTEREKFIVPIKARGARAILDFPDKLNFSTCPVKYSTQKILLVRNIGNKNAVFHIKTCRPFSIEPAIGTLNVGESMQLEVEFEPQSVGDHSGRLIVCYDTGEKVFVSLYGAAIDMNIRLDKNSLTIEKTYISMANQRTITIHNRSNIIAHFLWKVFATQQEEDREKYRACDDLIKEEKDETDEFFEECITDPLLREHLSVLSRTFANQRRLVQGDSKLFFNNVFTVEPLEGDVWPNSSAEITVYFNPLEAKLYQQTIYCDILGREIRLPLRIKGEGMGPKIHFNFELLDIGKVFTGSAHCYEAILYNKGSIDALFNMTPPTSALGACFVFSPKEGIIEPSGVQAIQISFSSIILGNFEEEFLVNVNGSPEPVKLTIRGCVIGPTFHFNVPALHFGDVSFGFPHTLICSLNNTSLIPMTYKLRIPGDGLGHKSISYCEQHVDYKRPSWTKEEISSMKPKEFTISPDCGTIRPQGFAAIRVTLCSNTVQKYELALVVDVEGIGEEVLALLITARYCSPACSSPESPPSLQ | soluble
MTSSNKLHEVDKDQQSAFDITGRYQTISAHPTKEFSKPTLAAGAVLWRHSSTITENPAVEFAVIHRPHYDDWSLAKGKVDPGESLPVTAEREIREETGHHVHLGKLLGKVSYPVGERTKVVYYWIAQVHDEAFEENNEVDELRWLPYTEARELLSYDVDRLVLDKAYKRLALPTTTRVILVRHAKAHQRHNWAGNDSIRPLEKKGQRQADLLGPMLAAYGPTSIHSATPARCQQTAAPLSELTGLEVVVDDRFDDEAWLSRMTVAQKACEELIATPGTHVVVSQGLFIPDAIAWLSAQGRLPLETIEAKKASAWVLSFHEGELTGADYLVSPLGVK | not soluble
MTSTGPETSETPGATTQRHGFGIDVGGSGIKGGIVDLDTGQLIGDRIKLLTPQPATPLAVAKTIAEVVNGFGWRGPLGVTYPGVVTHGVVRTAANVDKSWIGTNARDTIGAELGGQQVTILNDADAAGLAETRYGAGKNNPGLVVLLTFGTGIGSAVIHNGTLIPNTEFGHLEVGGKEAEERAASSVKEKNDWTYPKWAKQVIRVLIAIENAIWPDLFIAGGGISRKADKWVPLLENRTPVVPAALQNTAGIVGAAMASVADTTH | not soluble
MTTAGYYAAVDWGTSSFRLWIIGEDGAVLAERRSAEGMTTAAKTGFHTILDGHLAAVSAPAHLPIIICGMAGARQGWKEAGYIETPAALAEIAGRATAIPDVDRDIRILPGLAQRDRRHPDVMRGEETQLLGAAAHLGAGSHLVCMPGTHSKWVRLADDRVEGFSTFMTGELFDTIARHTILSHAVAEADTFAAGSAAFTDAVSRTRENPALATNLLFSVRAGQLLHGTAAADARAQLSGTLIGLEIAGALAGSGSVDGVCLVGSGGLGTLYRTALESQGLNVRAVDADEAVRAGLSAAARAIWPL | not soluble
MTTAIGKKTTKLEPFKMERGVKYRDAAKTSVIQVRNIDPDQELLKKPEWMKIKLPTNSAKIDSIKYGMRRHGLHSVCEEASCPNLHECFNHGTATFMIMGAICTRRCPFCDVAHGKPLPLDPYEPRKVAETVQDMKLKYVVITSVDRDDLADRGAAHFAATVREIKALNPECKVEILVPDFRGRVEQAVAILKQNPPDVFNHNLENVPRLYREIRPGADYKWSLELLKIFKQEFPNIPTKSGLMVGLGETNEEILAVMQDLRDHGVTMLTVGQYLQPSRHHLRVERYVPPAEFEMFRSEAEKMGFEHAACGPFVRSSYHADLQAKGELVK | not soluble
MTTDQIAAFCLQLPGAREDLKWGSNRVFSVAGNKMFAILDFVDKDGGLAFKVGSELFLGYVDRPGIRPAPYLARAHWIVMARPYPMKAAELREALVRSHQLVVARLPKRQRLGLVLDA | not soluble
MTTETQADRTQQAVGRIIGSIGVVTTQTTGRHQGILTSWVSQASFTPPGIMLAIPGEFDAYGLAGQNKAFVLNLLQEGRSVRRHFDHQPLPKDGDNPFSRLEHYSTQNGCLILAEALAYLECLVQSWSNIGDHVLVYATVQAGQVLQPNGITLEHHHHHH | soluble
MTTHEKVILVGVETEKNYQTFSASMEELANLTETANGEVVFVLTQKRPQVDRQTVIGKGKLEELIQLTDAYEADLVIFNHELTPRQNQLLSEALAVRVIDRVQLILDIFALRARSKEGKLQVELAQLDYLLPRLAGQGKQLSRLGGGIGTRGPGETKLESDRRHIRNKILGIRRELKEVTAHRERSRQKRQNSELFQIGLIGYTNAGKSTILNMLTTAGTYSEDQLFATLDPLTKKWQLPQGMEVTLTDTVGFIQDLPTQLIEAFQSTLEESRTMDLLLHVVDASAPDRLQHERTVQTLMKELALENIPCLTVYNKRDQVDSKEFVPTLFPNVLISTKISEDKERLVQAIRAQMMELLEPYQLEISPTDGQLLSELRRMTLMISEEYAENENRYIVKGFAKKKSKWLAESEKEAAALEHHHHHH | not soluble
MTTHHIKKSYSPNTKLSDLICENYDLLLVITRFGISLGFGEKSIREVCEDNKVNTNTLMAVINALINRPEHPSETVLSDLSAPSLINYLRKSHNYFLEFRLPLLRQDLLAALSNCPSEVVFVIRQFYDEYVEEVRKHMSYEEKTVFPYVEKLLGGKLDKRSHYRIDIFSKRHDQIELKISELKNLLIKYYPTSSGYELNSVLHDIFSSEDDLSAHNFVEDHLFVPLIRKIEKENGL | not soluble
MTTIPVTSIAAEPAVSCSTCAACCCQLEVMLITDTGVPERFIDTDDWGGEVMRRLDDGWCAALDRDSMRCSIYELRPLICREFELGEADCLSERRGIATAYRLEHHHHHH | not soluble
MTTLLIVPGFGGSGPLHWQSWIAQKYTSSLWVNDLPLLEPKIHIWADAISRAMDNIEGKILILAHSFGCLASSLAIARHPQRVVAAILVAPASPESFSENGHILPEHDDTPTIRNLLPKQTLGICGLVIASENDPWMPFNQAASLAKSFGLPTINLGLSGHINVDSGHGQWPLIDVLVGNFLFQNENVPPIPSIKTAQDKTTPHLFPNGILEHHHHHH | not soluble
MTTLSMENFAQLFEESLTLHDMRVGEVITAEVVAVDSNFVTVNAGLKSESLIPAEEFKNDQGVVEVAIGDFVTVAIDALENGFGETKLSREKAKRMAAWVELEEALEAGTILSGMISGKVKGGLTVMVNGIRAFLPGSLVDVRPVKDTTPYENKQIEFKVIKLDRKRNNVVVSRRSVLEETLGEERKALLETLKEGAVIKGIVKNITDYGAFVDLGGIDGLLHITDLAWRRVKHPSEVLAVGDEVEAKVLKFDQEKNRVSLGLKQLGEDPWVGLSRRYPSGTRLFGKVTNLTDYGAFVEIEQGIEGLVHVSEMDWTNKNVHPSKVVQVGDEVEVMILEIDEDRRRISLGMKQCLANPWNEFADNFHKGDKLKGAIKSITDFGVFVGLPGGIDGLVHLSDLSWNEAGEEAVRKFKKGDEVEAVVLSIDVEKERISLGIKQLEGDPFNNFVAMNDKGALVKGTVKSVDAKGAVIALDADVEGYLRASELSRDRVEDARSVLKDGDAVEAVIVAVDRKSRNISLSIKAKDAQEDNAALKSLAVDSASAGTTNLGALLKAKLSGSNE | soluble
MTTMTPDAAGLAALEARLKQDLAWLELPAKSWVPRRVVDGKSVVDVVIVGAGMAGLVASAMLRRLGVDNQLVLDRARAGEEGPWVTFARMRTLRSPKELTGPAMGMPALTFRAFYEAQYGRQAWQALDRAPRTMWMDYLIWYRKVLDLPVRNGVSVERIHARTDELFALDISEGGTSRQILARHVVLATGRDGLGGAYVPSLCDGIDRRFWAHSSAPIDFERLRGRRVAVVGAGASAMDNAAMALEAGAARLDLFIRRADIPRVNKFTGIGSQGVVHGFAGLSDDWKWRFLDHTLKAQTPPPRQSVLRVSAYPQAHFHLASPIDDLAVAGDHLTVTTPKGRYATDFIIFGTGFKVDLALRDELAEFAPHIRFWCDRFPAPDGMDNAELENSPDLGDSFQFLEKEPGACPMLARLHCFNYPATLSHGKLSGDIPAISEGADRLARGIVRRLFVEDREIHFANLKAFATPELAGDEWQDADVTHQPAE | soluble
MTTPTFDINAAIQALREGKDLTGKDGILTPLIKQLTEAALAAELDGHLASTEGANRKNGKTTKTVKSPLGNFELNTPRDRAGTFEPQLVKKHQTQLTDEMERKIIGLFSLGSSYQDIRAHIEDMYGMSVSNGTVNAITDKLLPELQAWRERELEPLYPVIWLDAIHYKIKENGRFISKAVYTILALNVEGKKELLGLYLSDNEGAHHWLSVLTDLYNRGVKDILIACVDGLKGFPEAIATIYPQTEVQLCVIHQIRNSMKYVASKHQKAFMADLKCVYKAATLNAAEMALDELETKWGDKYPVVIKSWRNKWALLSVYFKYPDYVRTAIYTTNAVEAVHRQFRKLTKTKGGFANENSLLKLLYAGILKASERWTHPIQNWNLTLSQLSIHFEGRLENHIDL | not soluble
MTTPYCFNLAMRKSSRLITQFYEDRLSAVGLKSGQFSILKAVSFLKQTSNKELQGILVLDQTTLSRNLKPLFRDGYLKLSPDSNDARVKLISLTTQGQALYEKADPLWQKAQDDLEKKLGSEEVKNILTLADSFVKALAR | not soluble
MTTRDLFADHAPADDRRIALGEAAVVLRGFALAEATALLAAIDDIARQAPFRHMVTPGGFEMSVALTNCGALGWTSDRRGYRYAARDPQTGQPWPPLPDCFLRLARDAAAAAGFPGFTPDACLINRYVPGARLSLHQDKDEQDYGAPIVSVSLGMPAMFLWGGHRRTDKTLRVPLFHGDVVVWGGPDRLRYHGVLPLKEAAHPLLGAQRINLTLRRAGLEHHHHHH | soluble
